Experimental findings from patent US20130344567, “METHOD FOR IMMOBILISING NUCLEIC LIGANDS” (LFB Biotechnologies, published 2013) are described below.

What all share (settings): tags: recombinant human FVII produced in transgenic rabbit milk (FVII-TG)
The target in data set [1] is T1, Factor VII (FVII/FVIIa, active Gla domain) (Homo sapiens, UniProt P08709;P08709 P08709:61-212,P08709:213-466). As to the kind of experiment: affinity chromatography; 95% of FVII retained and eluted with EDTA (coupling pH 4.2); loading capacity 5.4 mg FVII/ml gel at 5.8 mg/ml aptamer; 50 mM Tris, 10 mM CaCl2, pH 7.5. The procedure: (§1) The loading capacity (or in other words the retention capacity) of the affinity supports, expressed in mg of FVII per ml of gel, was evaluated by injection of a composition of recombinant human FVII in “Tp5” buffer (50 mM Tris, 10 mM CaCl₂, pH 7.5).
(§2) Table 3 below gives the loading capacity of the affinity supports as a function of the number of aptamers grafted at their surface.

Data set [2] concerns the target T1, Factor VII (FVII/FVIIa, active Gla …). The data set can be described thus: affinity chromatography; loading capacity 8.0 mg FVII/ml gel at 5.6 mg/ml aptamer; FVIIam yield in eluate 76.8%; Tris, 10 mM CaCl2, EDTA elution. The procedure:
as §1, §2

Data set [3] shares this target. The data set can be described thus: affinity chromatography; FVIIam yield in eluate 73.8%, 1.1% not retained; 50 mM Tris, 10 mM CaCl2, 4 mM MgCl2, pH 7.5; EDTA elution.

B1: Mapt 2CS-PEG(C11) (oligo5) (ssDNA)
DNA: ATGCAGCCAGCCGCAGTGTAAGTGAATGCAGACATGGTCTAAGTG
modifications: 5' amine hydrophilic C11 spacer (11-amino-3,6,9-trioxaundecan-1-yl), grafted on NHS-activated Sepharose 4 FF
Turning to B1, the binding result in data set [1] is reported as “binds”.

B2: Mapt 2.2CS-PEG(C11) (ssDNA)
DNA: CCGCACGCTACGCGCATGAACCCGCGCACACGACTTGAAGTAGC
modifications: 5' amine hydrophilic C11 spacer (11-amino-3,6,9-trioxaundecan-1-yl), grafted on NHS-activated Sepharose 4 FF
Take B2: the binding result in data set [2] was “binds”. In the case of CCGCACGCTACGCGCATGAACCCGCGCACACGACTTGAAGTAGC (ssDNA, 5' amine C6 spacer, grafted on NHS-activated Sepharose 4 FF) [Mapt 2.2CS C6], the binding result in data set [3] was “binds”.
